Experimental data as given in publication doi:10.1101/2022.08.09.503213 (bioRxiv, 2022).

Target: IFT140 with C-terminal TEV site and Strep-tag II (IFT140^Strep) (human, UniProt Q96RY7 1-1462)
Test: pull-down

Sequence of IFT140 with C-terminal TEV site and Strep-tag II (IFT140^Strep) (Q96RY7 whole entry): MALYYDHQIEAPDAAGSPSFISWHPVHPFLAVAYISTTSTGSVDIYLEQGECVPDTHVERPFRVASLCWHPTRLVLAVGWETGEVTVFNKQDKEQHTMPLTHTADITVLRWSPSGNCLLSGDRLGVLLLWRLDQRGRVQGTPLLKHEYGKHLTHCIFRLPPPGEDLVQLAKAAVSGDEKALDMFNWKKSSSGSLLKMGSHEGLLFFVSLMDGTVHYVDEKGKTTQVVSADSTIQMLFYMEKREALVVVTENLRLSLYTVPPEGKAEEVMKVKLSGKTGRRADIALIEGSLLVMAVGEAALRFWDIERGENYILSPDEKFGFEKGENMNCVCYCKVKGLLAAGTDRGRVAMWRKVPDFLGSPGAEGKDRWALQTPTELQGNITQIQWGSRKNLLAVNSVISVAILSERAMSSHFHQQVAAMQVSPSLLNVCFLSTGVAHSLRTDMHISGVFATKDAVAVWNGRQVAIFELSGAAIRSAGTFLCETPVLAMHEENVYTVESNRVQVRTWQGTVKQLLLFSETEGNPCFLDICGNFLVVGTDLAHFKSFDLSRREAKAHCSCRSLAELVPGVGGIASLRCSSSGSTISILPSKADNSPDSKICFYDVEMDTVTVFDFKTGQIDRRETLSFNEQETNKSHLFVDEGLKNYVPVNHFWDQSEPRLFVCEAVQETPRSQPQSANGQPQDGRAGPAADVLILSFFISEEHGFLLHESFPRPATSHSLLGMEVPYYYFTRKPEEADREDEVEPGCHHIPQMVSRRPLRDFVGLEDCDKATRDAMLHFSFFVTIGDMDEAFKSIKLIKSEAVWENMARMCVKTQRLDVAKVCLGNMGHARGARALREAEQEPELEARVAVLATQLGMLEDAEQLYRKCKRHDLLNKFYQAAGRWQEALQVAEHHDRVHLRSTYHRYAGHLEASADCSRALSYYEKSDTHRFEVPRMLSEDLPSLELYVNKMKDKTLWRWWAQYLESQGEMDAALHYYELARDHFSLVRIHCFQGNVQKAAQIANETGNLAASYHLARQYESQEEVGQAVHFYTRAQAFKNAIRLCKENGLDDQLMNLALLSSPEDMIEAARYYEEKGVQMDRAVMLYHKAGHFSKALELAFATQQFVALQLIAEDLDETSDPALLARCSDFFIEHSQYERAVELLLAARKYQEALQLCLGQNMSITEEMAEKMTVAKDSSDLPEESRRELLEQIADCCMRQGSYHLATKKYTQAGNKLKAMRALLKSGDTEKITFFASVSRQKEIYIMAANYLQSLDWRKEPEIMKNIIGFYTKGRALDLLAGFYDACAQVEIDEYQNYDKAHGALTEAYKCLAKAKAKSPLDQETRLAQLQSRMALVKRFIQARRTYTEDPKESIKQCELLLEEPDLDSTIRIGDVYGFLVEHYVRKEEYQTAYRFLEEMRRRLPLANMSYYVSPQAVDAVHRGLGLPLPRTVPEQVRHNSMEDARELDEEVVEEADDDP

B1: IFT144 with C-terminal TEV site and FLAG tag (IFT144^FLAG) (natural protein, human, UniProt Q8NEZ3 1-1342, looked up)
chain: MKRIFSLLEKTWLGAPIQFAWQKTSGNYLAVTGADYIVKIFDRHGQKRSEINLPGNCVAMDWDKDGDVLAVIAEKSSCIYLWDANTNKTSQLDNGMRDQMSFLLWSKVGSFLAVGTVKGNLLIYNHQTSRKIPVLGKHTKRITCGCWNAENLLALGGEDKMITVSNQEGDTIRQTQVRSEPSNMQFFLMKMDDRTSAAESMISVVLGKKTLFFLNLNEPDNPADLEFQQDFGNIVCYNWYGDGRIMIGFSCGHFVVISTHTGELGQEIFQARNHKDNLTSIAVSQTLNKVATCGDNCIKIQDLVDLKDMYVILNLDEENKGLGTLSWTDDGQLLALSTQRGSLHVFLTKLPILGDACSTRIAYLTSLLEVTVANPVEGELPITVSVDVEPNFVAVGLYHLAVGMNNRAWFYVLGENAVKKLKDMEYLGTVASICLHSDYAAALFEGKVQLHLIESEILDAQEERETRLFPAVDDKCRILCHALTSDFLIYGTDTGVVQYFYIEDWQFVNDYRHPVSVKKIFPDPNGTRLVFIDEKSDGFVYCPVNDATYEIPDFSPTIKGVLWENWPMDKGVFIAYDDDKVYTYVFHKDTIQGAKVILAGSTKVPFAHKPLLLYNGELTCQTQSGKVNNIYLSTHGFLSNLKDTGPDELRPMLAQNLMLKRFSDAWEMCRILNDEAAWNELARACLHHMEVEFAIRVYRRIGNVGIVMSLEQIKGIEDYNLLAGHLAMFTNDYNLAQDLYLASSCPIAALEMRRDLQHWDSALQLAKHLAPDQIPFISKEYAIQLEFAGDYVNALAHYEKGITGDNKEHDEACLAGVAQMSIRMGDIRRGVNQALKHPSRVLKRDCGAILENMKQFSEAAQLYEKGLYYDKAASVYIRSKNWAKVGDLLPHVSSPKIHLQYAKAKEADGRYKEAVVAYENAKQWQSVIRIYLDHLNNPEKAVNIVRETQSLDGAKMVARFFLQLGDYGSAIQFLVMSKCNNEAFTLAQQHNKMEIYADIIGSEDTTNEDYQSIALYFEGEKRYLQAGKFFLLCGQYSRALKHFLKCPSSEDNVAIEMAIETVGQAKDELLTNQLIDHLLGENDGMPKDAKYLFRLYMALKQYREAAQTAIIIAREEQSAGNYRNAHDVLFSMYAELKSQKIKIPSEMATNLMILHSYILVKIHVKNGDHMKGARMLIRVANNISKFPSHIVPILTSTVIECHRAGLKNSAFSFAAMLMRPEYRSKIDAKYKKKIEGMVRRPDISEIEEATTPCPFCKFLLPECELLCPGCKNSIPYCIATGRHMLKDDWTVCPHCDFPALYSELKIMLNTESTCPMCSERLNAAQLKKISDCTQYLRTEEEL
B1: binds.
